Source: paper PMC8188212, “Multi‐Arm PEG/Peptidomimetic Conjugate Inhibitors of DR6/APP Interaction Block Hematogenous Tumor Cell Extravasation” (Advanced Science, 2021)
Square brackets hold non-standard residues; d marks the D form. Side chains are listed from the residue outwards. Ends that are not written are not given here. maleimide = maleimide: 4-arm PEG5k maleimide reacting with the C-terminal Cys thiol

T1: DR6 protein (Homo sapiens, UniProt O75509)
T1 construct: purchased Sino Biology, Inc. (Shanghai, China)
T1 sequence (O75509 42-655): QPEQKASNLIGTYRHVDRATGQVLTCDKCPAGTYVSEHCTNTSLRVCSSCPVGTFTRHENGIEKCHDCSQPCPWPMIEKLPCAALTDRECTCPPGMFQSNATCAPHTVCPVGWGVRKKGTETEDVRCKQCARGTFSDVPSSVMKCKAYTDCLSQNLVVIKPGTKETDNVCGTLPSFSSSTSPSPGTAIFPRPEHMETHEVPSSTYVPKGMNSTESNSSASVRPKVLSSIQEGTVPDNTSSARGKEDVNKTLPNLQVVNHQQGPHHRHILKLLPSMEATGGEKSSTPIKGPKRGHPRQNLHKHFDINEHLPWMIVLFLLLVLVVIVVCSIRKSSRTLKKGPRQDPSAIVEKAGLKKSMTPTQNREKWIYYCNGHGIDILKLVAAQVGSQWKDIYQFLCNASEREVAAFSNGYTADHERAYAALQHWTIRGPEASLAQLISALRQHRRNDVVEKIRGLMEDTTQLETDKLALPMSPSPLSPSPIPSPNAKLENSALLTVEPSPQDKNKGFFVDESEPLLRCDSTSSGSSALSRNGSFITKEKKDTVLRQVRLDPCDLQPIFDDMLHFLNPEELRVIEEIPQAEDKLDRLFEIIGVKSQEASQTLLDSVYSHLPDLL

T2: death receptor 6 (DR6) protein (UniProt O75509 42-349, labelled with RED-tris-NTA second-generation dye)
T2 construct: death receptor 6 (DR6), bought recombinant protein; It is probably a soluble extracellular construct, but that is a surmise; source: bought: Sino Biology
T2 sequence (looked up): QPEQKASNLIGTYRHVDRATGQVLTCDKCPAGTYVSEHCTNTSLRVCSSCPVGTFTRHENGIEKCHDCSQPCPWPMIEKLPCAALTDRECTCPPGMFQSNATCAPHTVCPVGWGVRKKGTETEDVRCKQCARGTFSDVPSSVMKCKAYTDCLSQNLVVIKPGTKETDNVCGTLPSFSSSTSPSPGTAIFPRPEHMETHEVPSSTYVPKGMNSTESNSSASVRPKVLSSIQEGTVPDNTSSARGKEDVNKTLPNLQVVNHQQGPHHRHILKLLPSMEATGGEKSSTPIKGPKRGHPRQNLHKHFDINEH

T3: death receptor 6 (DR6) protein (UniProt O75509 42-349, labelled with RED-tris-NTA second-generation dye)
T3 construct: death receptor 6 (DR6), bought recombinant protein; source: bought: Sino Biology, Inc. (Shanghai, China)
T3 sequence (looked up): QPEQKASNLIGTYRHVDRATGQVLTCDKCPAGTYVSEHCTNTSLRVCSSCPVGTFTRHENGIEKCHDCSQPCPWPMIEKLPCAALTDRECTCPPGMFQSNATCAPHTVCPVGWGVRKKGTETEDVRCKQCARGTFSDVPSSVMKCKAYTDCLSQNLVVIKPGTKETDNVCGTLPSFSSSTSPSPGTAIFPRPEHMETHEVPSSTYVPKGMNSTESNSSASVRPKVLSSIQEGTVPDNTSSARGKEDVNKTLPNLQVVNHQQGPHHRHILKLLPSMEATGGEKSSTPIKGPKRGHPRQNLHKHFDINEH


biological target: T1, DR6 protein; assay: KD of DR6-targeting peptides for binding to DR6 protein by MST; conditions: Tables S1 and S2, average of three independent experiments in triplicate, NB = No binding, read-out: KD ± SEM
Procedure: For labeling DR6 protein with Red‐tris‐NTA second‐generation dye, equal volume of DR6 protein (200 × 10^–9 M) and dye (100 × 10^–9 M) were mixed. The solution was incubated for 30 min at room temperature and centrifuged for 10 min at 4 ℃ and 15 000 × g. The DR6 protein was labeled and ready for the binding assay. Prepare 25 µL of the DR6‐targeting peptides at 20 × 10^–6 M and add 10 µL of the PBS‐T into the PCR tubes 2–12. Transfer 20 µL DR6‐targeting peptides into the PCR tube 1 and then transfer 10 µL of the DR6‐targeting peptides from tube 1 to tube 2 with a pipette and mix by pipetting up and down multiple times. Transfer 10 µL to tube 3 and mix. Repeat the procedure for tube 4–12. Add 10 µL of labeled protein to each tube (1–12) and mix by pipetting. The final DR6 protein concentration was 50× 10^−9 M. Load the capillaries and measure the samples by NanoTemper Monolith NT.015.^[ ^51 , ^52 ^]

Molecule	Kd [nM]
KLVPEPS [AHP-09]	> 10000
LMTTKSD [AHP-22]	> 10000
LPRSPLA [AHP-20]	> 10000
MPPFRHD [AHP-19]	> 10000
TIPKYER [AHP-15]	> 10000
TTYMPKM [AHP-18]	> 10000
YSLHASP [AHP-07]	> 10000

biological target: T2, death receptor 6 (DR6) protein; assay: MST; DR6 protein labelled with RED-tris-NTA second-generation dye, final 50 × 10^-9 M; peptides prepared at 20 × 10^-6 M and diluted serially 1:1 over 12 tubes in PBS-T; NanoTemper Monolith NT.015; conditions: both partners purified

Molecule	Kd [nM]
[dP][dT][dT][dA][dD][dI][dT] (Peptidomimetic made of D-amino acids; source: synthetic peptide (SPPS, HPLC purified)) [AHP‐DRI‐12 (D‐retro‐inverso isomer of AHP‐12)]	225
[dP][dT][dT][dA][dD][dI][dT]C([maleimide-4‑arm PEG5k]) (other, also: four peptides on one 4-arm PEG5k, additional Cys residue at the C-terminal, coupled to the maleimide of the PEG arm; Four peptide chains on one 4-arm PEG5k, not a polypeptide oligomer; also called PEG‐tAHP‐12; PEGylated tetrameric AHP‐DRI‐12; source: synthetic peptide conjugated to 4-arm PEG5k maleimide, dialysed) [PEG‐tAHP‐DRI (tetra‐(D‐retro‐inverso isomer of AHP‐12) substitued 4‐arm PEG5k)]	51.1
TIDATTP (heptapeptide selected from a random heptapeptide M13 phage display library against DR6; also called AHP-12 (TIDATTP); source: synthetic peptide (SPPS, HPLC purified)) [AHP‐12]	322

test system: HUVECs; assay: Apoptosis analysis, annexin V-FITC/PI flow cytometry; type: cell-based, human; conditions: 24 h, rhTRAIL 100 ng mL^–1 as positive control
Procedure: To evaluate the number of apoptotic cells after treatment of AHP‐DRI‐12 and PEG‐tAHP‐DRI, 5 × 10^5 HUVECs were seeded in six‐well plates and treated with rhTRAIL (100 ng mL^–1, Peprotech) or AHP‐DRI‐12 and PEG‐tAHP‐DRI (0.1 × 10^–6, 1.0 × 10^–6, 10 × 10^–6 M AHP‐DRI‐12). After incubating for 24 h, HUVECs were harvested and resuspended in 100 µL binding buffer, and then stained with FITC‐labeled annexin V and propidium iodide (PI) (BD Biosciences) according to the manufacturer's instructions. The apoptotic number of HUVECs was measured by flow cytometry.

Molecule	HUVECs undergoing apoptosis [%]
TRAIL	30

biological target: T3, death receptor 6 (DR6) protein; assay: MST; DR6 protein labelled with RED-tris-NTA second-generation dye, final 50 x 10^-9 M; peptide prepared at 20 x 10^-6 M, diluted serially 1:1 in PBS-T over 12 tubes and mixed with an equal volume of labelled DR6; NanoTemper Monolith NT.015; conditions: both partners purified

Molecule	Kd [nM]
WTLSINS (heptapeptide selected from a random phage display library against DR6; source: synthetic peptide (SPPS)) [AHP-01]	1150
YYSGNNL (heptapeptide selected from a random phage display library against DR6; source: synthetic peptide (SPPS)) [AHP-05]	1100
YLPAPLP (heptapeptide selected from a random phage display library against DR6; source: synthetic peptide (SPPS)) [AHP-03]	688
NGSTHER (heptapeptide selected from a random phage display library against DR6; source: synthetic peptide (SPPS)) [AHP-10]	528
GGLSMTR (heptapeptide selected from a random phage display library against DR6; source: synthetic peptide (SPPS)) [AHP-23]	4460
NHQRLLP (heptapeptide selected from a random phage display library against DR6; source: synthetic peptide (SPPS)) [AHP-24]	1090
